The results in this text go back to US20040013664A1 (published 2004).

Assay [1] addresses T1, AIM-II expressed on HEK 293 EBNA cells (UniProt O43557 1-240).
T1 construct: whole, on cells
Description: flow cytometry on AIM-II-transfected HEK 293 EBNA cells. On the procedure:
For detecting Fc-fusion protein, cells were stained with FITC-conjugated goat anti-human IgG. […] The cells were analyzed by FACScan (Becton Dickinson).
A general note: Flow cytometry measures light scatter and fluorescence of single cells or particles in a stream.

Assay [2] has as its target T2, Murine FasL expressed on murine L929 cells (mouse, UniProt P41047 1-279).
T2 sequence (looked up): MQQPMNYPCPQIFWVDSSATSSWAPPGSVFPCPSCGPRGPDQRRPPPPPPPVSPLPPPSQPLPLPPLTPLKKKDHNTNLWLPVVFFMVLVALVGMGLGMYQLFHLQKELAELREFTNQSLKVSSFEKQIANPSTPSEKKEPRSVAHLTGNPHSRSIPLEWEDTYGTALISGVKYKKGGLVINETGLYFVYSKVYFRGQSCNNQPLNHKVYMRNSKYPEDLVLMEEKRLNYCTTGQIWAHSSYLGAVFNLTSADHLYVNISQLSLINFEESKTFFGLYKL
Description: cell-based or functional assay.

For assay [3], the target named is T3, Full length TNF-gamma-beta on the cell surface (human, UniProt O95150 1-251).
T3 construct: whole, on cells; also called TNF-gamma-beta expressing cells
T3 sequence (looked up): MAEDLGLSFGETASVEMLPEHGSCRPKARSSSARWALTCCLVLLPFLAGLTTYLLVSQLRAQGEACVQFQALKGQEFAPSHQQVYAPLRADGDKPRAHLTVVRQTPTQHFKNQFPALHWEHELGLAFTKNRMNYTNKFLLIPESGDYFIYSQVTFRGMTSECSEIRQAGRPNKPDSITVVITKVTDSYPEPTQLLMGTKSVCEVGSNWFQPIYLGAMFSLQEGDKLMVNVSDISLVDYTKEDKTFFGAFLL
Description: flow cytometry competition on TNF-gamma-beta expressing cells; competitor DR3-Fc.

The target in assay [4] is T4, Fas receptor on human cells (Jurkat, HT-29) (human, UniProt P25445 26-335).
T4 sequence (looked up): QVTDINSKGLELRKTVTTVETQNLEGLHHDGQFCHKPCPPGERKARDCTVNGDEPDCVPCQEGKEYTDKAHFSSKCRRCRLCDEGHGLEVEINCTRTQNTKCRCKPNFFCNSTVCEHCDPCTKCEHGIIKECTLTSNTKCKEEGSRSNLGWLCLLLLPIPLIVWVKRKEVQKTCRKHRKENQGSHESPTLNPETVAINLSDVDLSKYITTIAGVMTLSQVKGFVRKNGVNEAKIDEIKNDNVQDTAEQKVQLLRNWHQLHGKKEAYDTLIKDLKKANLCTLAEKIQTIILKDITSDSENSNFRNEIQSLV
Description: cell-based or functional assay.

For assay [5], the target named is T3, Full length TNF-gamma-beta on the cell …. Description: flow cytometry on HEK293F cells expressing full length TNF-gamma-beta.

T1 sequence (O43557 whole entry): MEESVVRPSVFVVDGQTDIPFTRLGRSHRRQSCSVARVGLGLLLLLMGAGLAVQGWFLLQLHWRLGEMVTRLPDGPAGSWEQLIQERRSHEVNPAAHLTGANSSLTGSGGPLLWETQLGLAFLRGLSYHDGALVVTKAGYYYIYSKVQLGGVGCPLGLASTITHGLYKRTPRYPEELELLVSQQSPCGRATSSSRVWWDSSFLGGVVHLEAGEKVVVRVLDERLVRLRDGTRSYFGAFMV

B1: LTβR-Fc (Fc fusion, UniProt P36941 31-227, looked up)
chain: QAVPPYASENQTCRDQEKEYYEPQHRICCSRCPPGTYVSAKCSRIRDTVCATCAENSYNEHWNYLTICQLCRPCDPVMGLEEIAPCTSKRKTQCRCQPGMFCAAWALECTHCELLSDCPPGTEAELKDEVGKGNNHCVPCKAGHFQNTSSPSARCQPHTRCENQGLVEAAPGTAQSDTTCKNPLEPLPPEMSGTMLM
notes: also called LTbetaR-Fc; LTBR-Fc; not shown: Fc portion
In the case of B1, in assay [1], the binding result is recorded as “binds”.

B2: TNFR6 alpha-Fc (full length TNFR-6 alpha, amino acids 1-300 of SEQ ID NO:2, fused to an Fc domain of human IgG1) (Fc fusion, not shown: a dimerising Fc or GST)
chain: VAETPTYPWRDAETGERLVCAQCPPGTFVQRPCRRDSPTTCGPCPPRHYTQFWNYLERCRYCNVLCGEREEEARACHATHNRACRCRTGFFAHAGFCLEHASCPPGAGVIAPGTPSQNTQCQPCPPGTFSASSSSSEQCQPHRNCTALGLALNVPGSSSHDTLCTSCTGFPLSTRVPGAEECERAVIDFVAFQDISIKRLQRLLQALEAPEGWGPTPRAGRAALQLKLRRRLTELLGAQDGALLVRLLQALRVARMPGLERSVRERFLPVH
For B2, the “potency relative to Fas-Fc, killing of A20 cells by murine FasL transfected L929 cells” value in assay [2] turned out to be 100 fold.

B3: TR6 (full-length human TNFR-6 alpha without Fc) (receptor)
chain: B2 chain
notes: Full-length cDNA (aa 1-300) expressed in Sf9 cells; also called TR6-non-Fc; TR6 non-Fc
With B3, in assay [3], the “molar ratio (TR6 to DR3-Fc) at which no DR3-Fc binding was detected” value was found to be 2 mol/mol.

B4: Soluble human FLAG-FasL (synthesized at HGS) (ligand, UniProt P48023 130-281, looked up, not shown: small tags and cut ends)
chain: QIGHPSPPPEKKELRKVAHLTGKSNSRSMPLEWEDTYGIVLLSGVKYKKGGLVINETGLYFVYSKVYFRGQSCNNLPLSHKVYMRNSKYPQDLVMMEGKMMSYCTTGQMWARSSYLGAVFNLTSADHLYVNVSELSLVNFEESQTFFGLYKL
With B4, in assay [4], the “increase in apoptotic Jurkat cells over untreated controls (annexin FACS)” value was about 7 fold.

B5: OPG-Fc (Fc-fusion form of the extracellular domain) (Fc fusion, UniProt O00300 22-194, looked up)
chain: ETFPPKYLHYDEETSHQLLCDKCPPGTYLKQHCTAKWKTVCAPCPDHYYTDSWHTSDECLYCSPVCKELQYVKQECNRTHNRVCECKEGRYLEIEFCLKHRSCPPGFGVVQAGTPERNTVCKRCPDGFFSNETSSKAPCRKHTNCSVFGLLLTQKGNATHDNICSGNSESTQK
notes: extracellular domain; not shown: Fc portion
Turning to B5, the binding result in assay [5] is recorded as “no binding”.

B6: HVEM/TR2-Fc (Fc fusion)
chain: LPSCKEDEYPVGSECCPKCSPGYRVKEACGELTGTVCEPCPPGTYIAHLNGLSKCLQCQMCDPAMGLRASRNCSRTENAVCGCSPGHFCIVQDGDHCAACRAYATSSPGQRVQKGGTESQDTLCQNCPPGTFSPNGTLEECQHQTKCSWLVTKAGAGTSSSHWV
notes: also called soluble form of HVEM/TR2-Fc; not shown: Fc portion
As for B6, in assay [1], the binding result was “binds”.

B7: DcR1-Fc (Fc-fusion form of the extracellular domain) (Fc fusion, UniProt O14798 26-221, looked up)
chain: ATTARQEEVPQQTVAPQQQRHSFKGEECPAGSHRSEHTGACNPCTEGVDYTNASNNEPSCFPCTVCKSDQKHKSSCTMTRDTVCQCKEGTFRNENSPEMCRKCSRCPSGEVQVSNCTSWDDIQCVEEFGANATVETPAAEETMNTSPGTPAPAAEETMNTSPGTPAPAAEETMTTSPGTPAPAAEETMTTSPGTPA
notes: as for B5
On to B7, for which the binding result in assay [5] is listed as “no binding”.
